# Source: patent CN111087470A
# Target: 人CD47 (human) (UniProt Q08722)
# Test: flow cytometry on red blood cells, commercial B6H12.2 as comparison
binder,measurement,value
"商品化抗CD47抗体B6H12.2 (antibody, from another filing) scFv: EVQLVESGGDLVKPGGSLKLSCAASGFTFSGYGMSWVRQTPDKRLEWVATITSGGTYTYYPDSVKGRFTISRDNAKNTLYLQIDSLKSEDTAIYFCARSLAGNAMDYWGQGTSVTVSSGGGGSGGGGSGGGGSDIVMTQSPATLSVTPGDRVSLSCRASQTISDYLHWYQQKSHESPRLLIKFASQSISGIPSRFSGSGSGSDFTLSINSVEPEDVGVYYCQNGHGFPRTFGGGTKLEIKEQKLISEEDL",结合率,99.2%
